The source of these data is US6339070B1, “Gene construct encoding a heterologous prodrug-activating enzyme and a cell targeting moiety” (Zeneca Limited, priority 1997, dated 2002).

The subject of experiment [1] is CEA positive LoVo parental line. Put plainly: Cell based ELISA of secreted fusion protein, CEA positive cells. The settings on record: increasing amounts of added fusion protein, listed as (A5B7-CPG2)2 fusion protein. The procedure:
Cells were seeded into 96 well plates (Becton Dickinson Biocoat™ poly-D-Lysine, 35-6461) at a density of 1×10^4 cells per well in 100 μl normal culture media and left about 40 h at 37°. 100 μl of 6% formaldehyde was diluted in DMEM and left for 1 hour at 4°. Plates were centrifuged and washed 3 times in PBS containing 0.05% Tween™ by immersion soaking (first two washes for 2 minutes and the final wash for 5 minutes).
100 μl of doubling dilutions of cell culture supernatant containing fusion protein or chimeric A5B7 anti-CEA were added to each well as appropriate and the plates incubated overnight at 4°. The plates were washed as described above and, in the case of chimaeric fusion proteins. 100 μl of 1:1000 dilution of HRP labelled anti-human kappa antibody (Sigma A-7164) was added and incubated for 2 hours at room temperature (an anti-CPG2 detection methodology can be used in the case of murine scFv fusion proteins). The plates were washed as described above and HRP detected using OPD substrate (Sigma P-8412). Colour was allowed to develop for about 5 min, stopped with 75 μl per well of 2M H2SO4 and OD read at 490 nm.
In the case of the (A5B7-CPG2)2 fusion protein, material was produced in the supernatant from recombinant Colo32ODM tumour cells (CEA-ve). The fusion protein content was measured by use of the CEA ELISAs described above. […]

For experiment [2], the target named is T1, human carcinoembryonic antigen (CEA) (Homo sapiens, UniProt P06731).
T1 sequence (P06731 35-676): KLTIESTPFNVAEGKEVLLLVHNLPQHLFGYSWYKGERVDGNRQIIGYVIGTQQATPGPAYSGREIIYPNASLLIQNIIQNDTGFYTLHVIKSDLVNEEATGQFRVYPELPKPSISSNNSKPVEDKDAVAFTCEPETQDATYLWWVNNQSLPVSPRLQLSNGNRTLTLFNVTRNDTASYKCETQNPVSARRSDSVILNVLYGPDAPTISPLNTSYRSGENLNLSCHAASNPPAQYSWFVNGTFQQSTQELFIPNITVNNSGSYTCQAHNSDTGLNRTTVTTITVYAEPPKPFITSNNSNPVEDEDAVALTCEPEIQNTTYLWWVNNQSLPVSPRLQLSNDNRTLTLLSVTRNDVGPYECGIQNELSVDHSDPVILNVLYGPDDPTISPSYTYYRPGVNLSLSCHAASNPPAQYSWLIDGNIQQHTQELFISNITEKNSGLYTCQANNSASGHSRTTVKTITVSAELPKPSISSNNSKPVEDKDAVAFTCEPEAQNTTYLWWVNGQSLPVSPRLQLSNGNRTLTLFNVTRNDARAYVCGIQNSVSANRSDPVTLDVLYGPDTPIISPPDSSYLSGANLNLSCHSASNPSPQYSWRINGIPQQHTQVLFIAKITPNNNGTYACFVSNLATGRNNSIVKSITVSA
Put plainly: CEA-binding ELISA, anti human kappa light chain reporter antibody. As to conditions: COS-7 transient expression supernatant. The protocol: For the CEA ELISA each well of a 96 well immunoplate (NUNC MAXISORB™) was coated with 50 ng CEA in 50 mM carbonate/bicarbonate coating buffer pH9.6 (buffer capsules—Sigma C3041) and incubated at 4° overnight. The plate was washed three times with PBS-TWEEN™ (PBS+0.05% TWEEN™ 20) and then blocked 150 μl per well of 1% BSA in PBS-TWEEN™ for 1 hour at room temperature. The plate was washed three times with PBS-TWEEN™, 100 μl of test sample added per well and incubated at room temperature for 2 hours. The plate was washed three times with PBS-TWEEN™, 100 μl per well of a 1/500 dilution of HRPO-labelled goat anti-human kappa antibody (Sigma A 7164) was added in 1% BSA in PBS-TWEEN™ and incubated at room temperature on a rocking platform for at least 1 hour. The plate was washed three times with PBS-TWEEN™ and then once more with PBS. To detect binding, add 100 μl per well of developing solution (one capsule of phosphate-citrate buffer—Sigma P4922—dissolved in 100 ml H2O to which is added one 30 mg tablet o-phenylenediamine dihydrochloride—Sigma P8412) and incubated for up to 15 minutes. The reaction was stopped by adding 75 μl 2M H2SO4, and absorbance read at 490 nm.

For experiment [3], the system named is LoVo, CEA bearing, tumour cells. Description: In vitro cell killing assay: cell-bound fusion protein plus PGP prodrug, SRB stain. It is filed as cell-based. As to conditions: unbound protein washed off, PGP 1 hr, 4 days proliferation. The procedure:
An in vitro cell killing assay was performed in which the (A5B7-CPG2 R6)2 fusion protein was compared to a “conventional” A5B7 F(ab′)2-CPG2 conjugate formed through linking A5B7 F(ab′)2 to CPG2 with a chemical heterobifunctional reagent. […] The cells were then washed to remove unbound protein material and subsequently resuspended in medium containing a CPG2 phenol prodrug (PGP, see Example 2 below) for a period of 1 hr, after which the cells were washed, resuspended in fresh media and left to proliferate for 4 days. Finally the cells were treated with SRB stain and their numbers determined.

Entries after “also recorded” stand apart in the source; their conditions may differ.

B1: (A5B7 Fab-CPG2)2 fusion protein: chimaeric A5B7 anti-CEA Fab, heavy chain Fd linked via (G4S)3 linker to CPG2 R6, dimerised through CPG2 (antibody)
heavy: EVKLVESGGGLVQPGGSLRLSCATSGFTFTDYYMNWVRQPPGKALEWLGFIGNKANGYTTEYSASVKGRFTISRDKSQSILYLQMNTLRAEDSATYYCTRDRGLRFYFDYWGQGTTLTVSSASTKGPSVFPLAPCSRSTSESTAALGCLVKDYFPEPVTVSWNSGALTSGVHTFPAVLQSSGLYSLSSVVTVPSSNFGTQTYTCNVDHKPSNTKVDKTVGGGGSGGGGSGGGGSQKRDNVLFQAATDEQPAVIKTLEKLVNIETGTGDAEGIAAAGNFLEAELKNLGFTVTRSKSAGLVVGDNIVGKIKGRGGKNLLLMSHMDTVYLKGILAKAPFRVEGDKAYGPGIADDKGGNAVILHTLKLLKEYGVRDYGTITVLFNTDEEKGSFGSRDLIQEEAKLADYVLSFEPTSAGDEKLSLGTSGIAYVQVQITGKASHAGAAPELGVNALVEASDLVLRTMNIDDKAKNLRFQWTIAKAGQVSNIIPASATLNADVRYARNEDFDAAMKTLEERAQQKKLPEADVKVIVTRGRPAFNAGEGGKKLVDKAVAYYKEAGGTLGVEERTGGGTDAAYAALSGKPVIESLGLPGFGYHSDKAEYVDISAIPRRLYMAARLIMDLGAGK
light: QTVLSQSPAILSASPGEKVTMTCRASSSVTYIHWYQQKPGSSPKSWIYATSNLASGVPARFSGSGSGTSYSLTISRVEAEDAATYYCQHWSSKPPTFGGGTKLEIKRTVAAPSVFIFPPSDEQLKSGTASVVCLLNNFYPREAKVQWKVDNALQSGNSQESVTEQDSKDSTYSLSSTLTLSKADYEKHKVYACEVTHQGLSSPVTKSFNRGEC
As for B1, in experiment [1], the “binding to CEA positive cells (OD 490 nm)” value is “increased levels of binding with increasing amounts of added fusion protein; also recorded: binds specifically to a CEA positive cell line in a dose dependant manner”. The “CEA binding in anti-CEA ELISA” value in experiment [2] is “binding of protein at levels commensurate with a bivalent A5B7 antibody molecule”. Also, the “cell kill with PGP prodrug compared with equivalent levels of A5B7 F(ab)2-CPG2 conjugate” value in experiment [3] was “at least equivalent cell kill”.
